Assay results: paper PMC2180222 (The Journal of Cell Biology, 2000)

Molecular target: the molecule itself
Experiment: negative-stain electron microscopy

B1: HIV-1 Rev (natural protein, UniProt P04616 1-116, looked up)
chain: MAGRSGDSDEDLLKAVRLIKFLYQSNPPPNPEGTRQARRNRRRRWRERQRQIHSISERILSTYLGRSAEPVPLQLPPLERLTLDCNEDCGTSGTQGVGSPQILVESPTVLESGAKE
B1: binds.
